Results as given in publication PMC4735815, “Protein unfolding as a switch from self-recognition to high-affinity client binding” (Nature Communications, 2016).

Biological target: the molecule itself
Assay: cross-linking; in vitro UV crosslinking of purified Hsp33^M172S-BPA variants alone; dimers at ∼70 kDa

B1: Hsp33^M172SL202BPA (natural protein)
chain: MIMPQHDQLHRYLFENFAVRGELVTVSETLQQILENHDYPQPVKNVLAELLVATSLLTATLKFDGDITVQLQGDGPMNLAVINGNNNQQMRGVARVQGEIPENADLKTLVGNGYVVITITPSEGERYQGVVGLEGDTLAACLEDYFMRSEQLPTRLFIRTGDVDGKPAAGGSLLQVMPAQNAQQDDFDHLATLTETIKTEEFLTLPANEVLWRLYHEEEVTVYDPQDVEFKCTCSRERCADALKTLPDEEVDSILAEDGEIDMHCDYCGNHYLFNAMDIAEIRNNASPADPQVH
modifications: p-benzoyl-L-phenylalanine (BPA) at position 202
stoichiometry N: 2
